From patent US20250262210A1 (TRUSTEES OF COLUMBIA UNIVERSITY IN THE CITY OF NEW YORK, published 2025)

Experiments:
Assay in all cases: IP/MS, LZTR1 R810W-FLAG, U87
[1] = target: KIAA1217 (human, UniProt Q5T5P2 1-1943, limits assumed)
In short: (§1)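 Read-out: spectral counts from LC-MS/MS (Orbitrap Fusion) after MaxQuant identification. Variable modifications were Met oxidation, protein N-terminal acetylation and N/Q deamidation.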

[2] = target: URB1 (human, UniProt O60287 1-2271)
In short: as §1

[3] = target: BRCA2 (human, UniProt P51587 1-3418)
In short: as §1

[4] = target: T1, KIAA1468 (human, UniProt Q9P260 2-1216, limits assumed)
T1 sequence (looked up): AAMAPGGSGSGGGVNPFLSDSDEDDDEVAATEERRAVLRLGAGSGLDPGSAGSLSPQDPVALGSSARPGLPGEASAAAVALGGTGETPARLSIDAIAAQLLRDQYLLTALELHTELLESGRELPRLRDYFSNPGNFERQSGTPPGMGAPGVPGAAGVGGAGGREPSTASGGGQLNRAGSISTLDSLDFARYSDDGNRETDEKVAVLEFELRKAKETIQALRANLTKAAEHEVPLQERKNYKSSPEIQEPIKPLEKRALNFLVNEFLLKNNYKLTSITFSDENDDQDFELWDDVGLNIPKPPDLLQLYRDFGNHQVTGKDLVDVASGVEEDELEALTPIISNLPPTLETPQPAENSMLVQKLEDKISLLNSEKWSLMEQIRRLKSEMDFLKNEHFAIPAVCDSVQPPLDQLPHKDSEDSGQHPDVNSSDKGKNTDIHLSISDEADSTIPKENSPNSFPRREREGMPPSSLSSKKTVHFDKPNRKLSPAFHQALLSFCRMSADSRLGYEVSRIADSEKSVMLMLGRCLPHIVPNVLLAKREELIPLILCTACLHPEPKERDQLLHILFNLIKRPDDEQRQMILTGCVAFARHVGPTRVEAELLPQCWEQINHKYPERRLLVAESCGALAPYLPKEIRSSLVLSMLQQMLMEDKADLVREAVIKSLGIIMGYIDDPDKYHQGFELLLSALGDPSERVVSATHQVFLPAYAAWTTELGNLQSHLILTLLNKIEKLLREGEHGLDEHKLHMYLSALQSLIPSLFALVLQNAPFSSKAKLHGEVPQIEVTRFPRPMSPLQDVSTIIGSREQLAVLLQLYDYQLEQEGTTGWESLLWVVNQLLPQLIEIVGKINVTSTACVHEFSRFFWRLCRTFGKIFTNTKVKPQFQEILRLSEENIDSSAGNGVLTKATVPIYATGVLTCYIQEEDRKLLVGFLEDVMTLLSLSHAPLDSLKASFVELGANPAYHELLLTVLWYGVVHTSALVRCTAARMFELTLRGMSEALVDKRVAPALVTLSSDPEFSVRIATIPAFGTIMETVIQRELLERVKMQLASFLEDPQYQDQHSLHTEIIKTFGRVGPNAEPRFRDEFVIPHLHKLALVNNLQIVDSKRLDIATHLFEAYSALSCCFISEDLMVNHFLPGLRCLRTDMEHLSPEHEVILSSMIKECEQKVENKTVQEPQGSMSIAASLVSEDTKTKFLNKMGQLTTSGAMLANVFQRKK
In short: as §1

Measured: binding result

URB1, sequence (O60287 whole entry): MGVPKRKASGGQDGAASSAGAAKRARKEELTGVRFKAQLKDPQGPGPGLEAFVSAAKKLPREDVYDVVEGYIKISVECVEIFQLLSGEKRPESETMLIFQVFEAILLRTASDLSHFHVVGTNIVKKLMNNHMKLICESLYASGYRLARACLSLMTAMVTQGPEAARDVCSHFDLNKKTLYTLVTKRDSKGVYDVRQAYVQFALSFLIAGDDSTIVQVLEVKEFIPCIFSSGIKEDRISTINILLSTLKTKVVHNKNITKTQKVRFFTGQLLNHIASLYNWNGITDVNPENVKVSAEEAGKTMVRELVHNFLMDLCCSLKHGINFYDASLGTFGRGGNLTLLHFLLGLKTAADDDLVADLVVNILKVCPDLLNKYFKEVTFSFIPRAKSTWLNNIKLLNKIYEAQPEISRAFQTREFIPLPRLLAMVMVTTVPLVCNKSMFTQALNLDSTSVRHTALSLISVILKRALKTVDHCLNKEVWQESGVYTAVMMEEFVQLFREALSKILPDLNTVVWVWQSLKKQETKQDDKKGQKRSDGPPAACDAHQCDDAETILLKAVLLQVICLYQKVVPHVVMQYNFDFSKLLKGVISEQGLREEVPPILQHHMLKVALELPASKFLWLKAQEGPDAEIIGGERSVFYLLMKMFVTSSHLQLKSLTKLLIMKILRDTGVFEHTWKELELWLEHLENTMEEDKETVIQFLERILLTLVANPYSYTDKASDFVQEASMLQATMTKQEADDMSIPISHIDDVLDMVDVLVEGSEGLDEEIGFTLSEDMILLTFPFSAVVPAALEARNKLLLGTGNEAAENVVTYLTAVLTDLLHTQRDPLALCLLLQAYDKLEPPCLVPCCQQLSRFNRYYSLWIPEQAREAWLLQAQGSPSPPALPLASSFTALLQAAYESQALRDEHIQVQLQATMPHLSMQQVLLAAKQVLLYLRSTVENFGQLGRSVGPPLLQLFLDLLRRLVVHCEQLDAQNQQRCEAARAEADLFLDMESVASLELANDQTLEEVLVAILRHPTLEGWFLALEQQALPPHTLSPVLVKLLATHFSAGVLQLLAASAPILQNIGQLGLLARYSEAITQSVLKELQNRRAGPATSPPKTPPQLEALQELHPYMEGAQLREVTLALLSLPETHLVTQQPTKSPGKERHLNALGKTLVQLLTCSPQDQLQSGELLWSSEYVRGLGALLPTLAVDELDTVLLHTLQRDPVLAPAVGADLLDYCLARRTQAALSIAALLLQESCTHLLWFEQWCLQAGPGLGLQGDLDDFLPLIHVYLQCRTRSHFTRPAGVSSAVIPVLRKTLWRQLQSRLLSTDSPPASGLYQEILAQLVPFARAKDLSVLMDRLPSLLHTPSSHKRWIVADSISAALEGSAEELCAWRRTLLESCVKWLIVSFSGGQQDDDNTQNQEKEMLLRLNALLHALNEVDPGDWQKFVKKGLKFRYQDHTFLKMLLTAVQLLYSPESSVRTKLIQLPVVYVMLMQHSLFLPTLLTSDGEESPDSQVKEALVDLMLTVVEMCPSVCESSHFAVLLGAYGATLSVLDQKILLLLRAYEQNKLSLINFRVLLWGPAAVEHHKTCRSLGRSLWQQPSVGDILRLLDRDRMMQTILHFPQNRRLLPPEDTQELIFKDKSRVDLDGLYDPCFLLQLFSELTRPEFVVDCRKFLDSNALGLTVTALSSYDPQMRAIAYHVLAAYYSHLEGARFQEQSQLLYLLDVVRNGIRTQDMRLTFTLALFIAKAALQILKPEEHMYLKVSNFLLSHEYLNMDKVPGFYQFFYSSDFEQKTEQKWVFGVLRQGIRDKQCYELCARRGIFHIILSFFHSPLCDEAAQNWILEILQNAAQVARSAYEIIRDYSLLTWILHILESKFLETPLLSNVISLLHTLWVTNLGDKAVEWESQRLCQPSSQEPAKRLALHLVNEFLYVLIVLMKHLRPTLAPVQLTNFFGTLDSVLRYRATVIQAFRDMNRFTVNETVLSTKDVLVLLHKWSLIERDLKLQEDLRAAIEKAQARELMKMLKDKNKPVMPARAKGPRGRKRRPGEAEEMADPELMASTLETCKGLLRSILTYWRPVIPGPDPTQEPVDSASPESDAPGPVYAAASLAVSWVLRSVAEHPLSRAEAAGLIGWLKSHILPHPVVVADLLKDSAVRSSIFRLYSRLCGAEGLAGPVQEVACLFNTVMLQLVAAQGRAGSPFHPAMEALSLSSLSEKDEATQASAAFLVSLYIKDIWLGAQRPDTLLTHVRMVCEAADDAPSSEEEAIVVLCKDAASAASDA
KIAA1217, sequence (Q5T5P2 whole entry, the tested form may be a part): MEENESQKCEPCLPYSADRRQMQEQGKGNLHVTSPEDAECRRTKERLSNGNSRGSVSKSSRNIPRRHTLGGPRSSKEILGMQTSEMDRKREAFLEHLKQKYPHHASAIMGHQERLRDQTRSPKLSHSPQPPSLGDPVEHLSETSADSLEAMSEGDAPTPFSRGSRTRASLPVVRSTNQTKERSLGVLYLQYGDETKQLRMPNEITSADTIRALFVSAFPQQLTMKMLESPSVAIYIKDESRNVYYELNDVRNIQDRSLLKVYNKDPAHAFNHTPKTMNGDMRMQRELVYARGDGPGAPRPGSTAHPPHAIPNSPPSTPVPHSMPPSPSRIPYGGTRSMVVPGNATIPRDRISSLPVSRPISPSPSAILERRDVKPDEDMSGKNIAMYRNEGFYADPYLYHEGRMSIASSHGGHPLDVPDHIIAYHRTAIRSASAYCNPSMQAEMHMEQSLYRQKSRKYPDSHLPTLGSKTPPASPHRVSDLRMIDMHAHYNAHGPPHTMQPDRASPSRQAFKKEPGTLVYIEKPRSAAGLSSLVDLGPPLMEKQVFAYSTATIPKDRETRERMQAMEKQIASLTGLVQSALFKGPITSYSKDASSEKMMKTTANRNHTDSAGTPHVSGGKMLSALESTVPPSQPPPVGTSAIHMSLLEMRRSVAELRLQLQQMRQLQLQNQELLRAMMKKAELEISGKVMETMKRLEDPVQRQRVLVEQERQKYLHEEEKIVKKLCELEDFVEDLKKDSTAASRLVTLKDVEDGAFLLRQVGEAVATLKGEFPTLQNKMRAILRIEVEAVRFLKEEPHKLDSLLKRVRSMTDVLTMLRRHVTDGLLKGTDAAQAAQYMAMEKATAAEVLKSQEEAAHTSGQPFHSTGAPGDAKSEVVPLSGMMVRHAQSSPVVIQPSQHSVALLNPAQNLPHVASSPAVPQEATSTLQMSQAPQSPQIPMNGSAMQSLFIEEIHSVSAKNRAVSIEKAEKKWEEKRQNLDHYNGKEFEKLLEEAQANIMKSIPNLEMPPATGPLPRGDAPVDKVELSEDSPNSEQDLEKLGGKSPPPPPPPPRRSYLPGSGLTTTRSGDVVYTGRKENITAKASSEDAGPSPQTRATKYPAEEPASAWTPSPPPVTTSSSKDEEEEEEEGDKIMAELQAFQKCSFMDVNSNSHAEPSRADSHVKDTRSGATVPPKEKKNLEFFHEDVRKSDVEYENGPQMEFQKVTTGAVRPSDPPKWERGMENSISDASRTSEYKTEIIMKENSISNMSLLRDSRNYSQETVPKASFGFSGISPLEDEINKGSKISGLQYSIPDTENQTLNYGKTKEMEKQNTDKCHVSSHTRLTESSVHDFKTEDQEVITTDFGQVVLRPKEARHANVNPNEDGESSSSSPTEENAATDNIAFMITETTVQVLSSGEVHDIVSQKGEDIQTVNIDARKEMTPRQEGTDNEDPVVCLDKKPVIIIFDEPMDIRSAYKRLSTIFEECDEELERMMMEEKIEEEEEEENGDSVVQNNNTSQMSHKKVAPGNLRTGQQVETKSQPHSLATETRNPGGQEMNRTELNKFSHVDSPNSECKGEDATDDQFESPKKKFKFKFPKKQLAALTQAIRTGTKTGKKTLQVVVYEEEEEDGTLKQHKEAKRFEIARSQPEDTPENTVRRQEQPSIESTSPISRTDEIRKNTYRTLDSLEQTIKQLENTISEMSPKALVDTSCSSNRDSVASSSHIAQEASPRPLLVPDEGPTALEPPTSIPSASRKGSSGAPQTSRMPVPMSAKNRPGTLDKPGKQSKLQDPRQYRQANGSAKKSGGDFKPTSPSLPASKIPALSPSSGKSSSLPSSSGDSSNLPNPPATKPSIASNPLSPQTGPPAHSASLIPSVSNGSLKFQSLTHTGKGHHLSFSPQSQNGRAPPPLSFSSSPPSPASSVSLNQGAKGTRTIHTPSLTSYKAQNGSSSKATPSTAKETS

B1: LZTR1 R810W-FLAG (other, human, UniProt Q8N653 1-840, looked up)
chain: MAGPGSTGGQIGAAALAGGARSKVAPSVDFDHSCSDSVEYLTLNFGPFETVHRWRRLPPCDEFVGARRSKHTVVAYKDAIYVFGGDNGKTMLNDLLRFDVKDCSWCRAFTTGTPPAPRYHHSAVVYGSSMFVFGGYTGDIYSNSNLKNKNDLFEYKFATGQWTEWKIEGRLPVARSAHGATVYSDKLWIFAGYDGNARLNDMWTIGLQDRELTCWEEVAQSGEIPPSCCNFPVAVCRDKMFVFSGQSGAKITNNLFQFEFKDKTWTRIPTEHLLRGSPPPPQRRYGHTMVAFDRHLYVFGGAADNTLPNELHCYDVDFQTWEVVQPSSDSEVGGAEVPERACASEEVPTLTYEERVGFKKSRDVFGLDFGTTSAKQPTQPASELPSGRLFHAAAVISDAMYIFGGTVDNNIRSGEMYRFQFSCYPKCTLHEDYGRLWESRQFCDVEFVLGEKEECVQGHVAIVTARSRWLRRKITQARERLAQKLEQEAAPVPREAPGVAAGGARPPLLHVAIREAEARPFEVLMQFLYTDKIKYPRKGHVEDVLLIMDVYKLALSFQLCRLEQLCRQYIEASVDLQNVLVVCESAARLQLSQLKEHCLNFVVKESHFNQVIMMKEFERLSSPLIVEIVRRKQQPPPRTPLDQPVDIGTSLIQDMKAYLEGAGAEFCDITLLLDGHPRPAHKAILAARSSYFEAMFRSFMPEDGQVNISIGEMVPSRQAFESMLRYIYYGEVNMPPEDSLYLFAAPYYYGFYNNRLQAYCKQNLEMNVTVQNVLQILEAADKTQALDMKRHCLHIIVHQFTKVSKLPTLWSLSQQLLLDIIDSLASHISDKQCAELGADI
notes: Stably expressed in U87 cells by lentivirus; also called LZTR1-FLAG-R810W; LZTR1 RW; not shown: FLAG tag
binds: [1] | [2] | [3] | [4]
